Among the data in paper PMC9351455 are expression_or_secretion values, retold here.

This data set is described as follows: 35S pulse-chase, HA immunoprecipitation from lysate and media. The conditions noted are these: glycan lost; control: wild type Cab45-HA.

B1: Cab45: Cab45-N40G (protein)
parent chain: MVWPWVAMASRWGPLIGLAPCCLWLLGAVLLMDASARPANHSSTRERVANREENEILPPDHLNGVKLEMDGHLNRGFHQEVFLGKDLGGFDEDAEPRRSRRKLMVIFSKVDVNTDRKISAKEMQRWIMEKTAEHFQEAMEESKTHFRAVDPDGDGHVSWDEYKVKFLASKGHSEKEVADAIRLNEELKVDEETQEVLENLKDRWYQADSPPADLLLTEEEFLSFLHPEHSRGMLRFMVKEIVRDLDQDGDKQLSVPEFISLPVGTVENQQGQDIDDNWVKDRKKEFEELIDSNHDGIVTAEELESYMDPMNEYNALNEAKQMIAVADENQNHHLEPEEVLKYSEFFTGSKLVDYARSVHEEF
For the protein B1, the expression_or_secretion entry is listed as “no change”.
